experiment: soluble on expression in E. coli; label from the status in PepcDB or PDB records

| Sequence | soluble on expression in E. coli |
| --- | --- |
| MGSDKIHHHHHHMIKLAQPQAQRLVLLLAGAVRSVLLYPGSHPAVVQQFAHLGSHVTELLRAYPEVRIGIIDGVLFCENHLFFTPTAAEEELAALLTNRHVEAVAFRAGLTPLELERFVELLTRRELLGEQLVAEVKRAGIAAISVELCGSGATEDHSQGDDEYDPGTTYREALDVVTGLFSEVEKGRIPSSDKLRGVVDRMATMIMQDRATLLGLAMIKDYDNYTFCHSVNVGILSMSLGAAAGLQRDELGELGMAGFLHDVGKTRVEITILNKPGRLSSDEYERMKMHSEEGARIVGEMPGVGERIARAVLGHHIRFDRAGYPESARALAFDRFCDIIAVADCYDAITTLRVYKSPLNPKDALLKLRSLAGSHLDSGLVQAFTEMMGRYPVGTLVRLDTNEVAVVFRPDPNGGERPVVKVVADPAGRLLDPAHMKNLARETGTRIVSVVDPLMTAIDVNRYLG | not soluble |
| MYEAHFGLKQLPFTLTPNTSLFHGLSPHYEAIHTVLSAISMGEGIIKVTGEVGTGKTLVCRMLINELPSNVELLYLPNPVMNGHELRQALAKELWLDQSGDDIALIDRIHEKIIDLHAEGKLVVVFIDEAQALSDEALETLRLFGNLETDYKKLLQIVLFGQPELDERLQQHNLRQLRQRITFSALLRALNMNETVAYIRYRIAESGCENNPFSLVQMKAIWKATNGIPRLINQVCHKSLLIAFSEQVNNVPSKAVFNAIIDTADTVKPKHYFPTFWGWRVSLEHHHHHH | soluble |
| MKLNIKDVVLNYNIIGEGEPIIILHGYSVDHTIMFGCMENLFSDESRYKRIYVDLPGMGKSTSSDSIKTSDNMLDIILEFIMKVTKGENFLLVGESYGGYLSRGVVYKIREKVNGLFLICPAIIPDFNKRTVPEHVILAYDEKLMSKLNKEEAEEFSSMSVVQNEKIYLRFKEEVMSGIKLGNQDFLERLQREGYGFSFDVDKLPQKFDKPTLMLLGKQDASVGYKDAWNILDNYPRATFAVLDMAGHNLQIEQEDIFNLLGKEWISRTYREKDY | not soluble |
| MKVRILGSGTSTGVPQIGCTCPVCTSADPKDNRLRASAIVETEDARILIDCGPDFRAQVLHLPFEKIDGVLITHEHYDHVGGLDDLRPFCRFGAVPIYAEEYVARALRLRMPYCFVDHRYPGVPDIPLQEIEVGHAFSIHHTEVVPLRVMHGRLPILGYRIGRLGYITDMLTMPEESYEQLEGIDVLIMNALRIAPHPTHQNLEEALKVAERIRAKETYFIHMSHDMGLHKKVEKELPENIHLTYDGMEIIF | not soluble |
| MGKNEILWGIAPIGWRNDDMPEIGAGNTLQHLLSDIVVARFQGTEVGGFFPEPAILNKELKLRNLRIAGKWFSSFILRDGLGEAAKTFTLHCEYLQQVNADVAVVSEQTYSVQSLEKNVFTEKPHFTDDEWERLCEGLNHLGEIAAQHGLKLVYHHHLGTGVQTAEEVDRLMAGTDPAHVHLLYDTGHAYISDGDYMGMLEKHIGRIKHVHFKDARLNVMEQCRLEGQSFRQSFLKGMFTVPGDGCIDFREVYQLLLKHSYSGWIVIEAEQDPDVANPLEYALIARNYIDQQLLDLALEHHHHHH | not soluble |
| MVKETKLYDLLGVSPSANEQELKKGYRKAALKYHPDKPTGDTEKFKEISEAFEILNDPQKREIYDQYGLEAARSGGPSFGPGGPGGAGG | soluble |
| MSAEAAAVEVQANEAPIVAPIMYKVESSDGQVYEISDEAVKQSNTLSNLISTCVANDVASMDPIPITNVTGNIMKMVIEWCEKHKGETLPVEDDSVPKNITVPEWDTNFLKIDNDVLFDLIVASNFLDVPGLMSYACKMVANMAIGKSPDEMRVLFAIPTDEEDEAAEKAAKEKAEAEKKAITEKDAAEPSTSK | soluble |
| MTSAEMTSPNNNSEHQAIAKMRTMIEGFDDISHGGLPIGRSTLVSGTSGTGKTLFSIQFLYNGIIEFDEPGVFVTFEETPQDIIKNARSFGWDLAKLVDEGKLFILDASPDPEGQEVVGGFDLSALIERINYAIQKYRARRVSIDSVTSVFQQYDASSVVRRELFRLVARLKQIGATTVMTTERIEEYGPIARYGVEEFVSDNVVILRNVLEGERRRRTLEILKLRGTSHMKGEYPFTITDHGINIFPLGAMRLTQRSSNVRVSSGVVRLDEMCGGGFFKDSIILATGATGTGKTLLVSRFVENACANKERAILFAYEESRAQLLRNAYSWGMDFEEMERQNLLKIVCAYPESAGLEDHLQIIKSEINDFKPARIAIDSLSALARGVSNNAFRQFVIGVTGYAKQEEITGLFTNTSDQFMGAHSITDSHIATITDTIILLQYVEIRGEMSRAINVFKMRGSWHDKAIREFMISDKGPDIKDSFRNFERIISGSPTRITVDEKSELSRIVRGVQEKGPES | soluble |
| MGSDKIHHHHHHMKSHIGLIGLAVMGQNLALNIARKGYKVSVYNRTAQRTEEFVKNRVTNEEIEPHYDIESFVKSLERPRKIILMVKAGKPVDDTISQLLPHLEPGDLIIDGGNSHYMDTERRFKELSEKGILFLGMGVSGGEYGALHGPSLMPGGSREAYNLVEEILLEIAAKTEDGPCCTYVGERSAGHFVKMVHNGIEYAIMQAIAEVYHIMRDVLSLSSEEMSSIFEEWNRGELSSFLVEITYKILRKKDEETGKPMVDVILDKAEQKGTGKWTSQAALDLGIPTPSINLAVVERVISHFKDIRTRLSKLYNKRRSATQGSEEFLRDLRNSLFFAMFMAFSQGMWLIAEASKEFGYGVSLSEVLRIWKGGCIIRAKLIDTLRRYISNENAYLLENEEVMNLLKGKIDSLKNILKASIENEIPVPVLSSSYNYFMSLTEERLPANLIQAQRDFFGAHTFERVDREGVFHINWEEGEIG | not soluble |
| MGHHHHHHSHKVENFEAAVHFYGKAIELNPANAVYFCNRAAAYSKLGNYAGAVQDCERAICIDPAYSKAYGRMGLALSSLNKHVEAVAYYKKALELDPDNETYKSNLKIAELKLREAPSPTGGVGSFDIAGLLNNPGFMSMASNLMNNPQIQQLMSGMISGGNNPLGTPGTSPSQNDLASLIQAGQQFAQQMQQQNPELIEQLRSQIRSRTP | not soluble |
| MPVLSIIACGMLEDELVHVLSKDCELKQLIVVENGNNSGFLRKLRAGKCIPRTIPLDRVQMFFKTGFNPDFETLAKFLAPFPFLGKVCEKMNEKAGQQVSVVVNLLRLGLHADLELLKSEVFRNIREMAAFSDGILIFYGTCGHVLGELEKDFIDLGCPLFFLKDKAGEIVEDCISTALGGNEAYARAMLACRGKGTIYLTPMWASSWKNFEKGSGSKDLNNRYLKNSRYCLAVKIETGISYEPDFHQNVQEFARTFGMKTITLKGSSEITEQGYFDARKALVKNSDCLPKNHQDMEFLEHHHHHH | not soluble |
| MGSDKIHHHHHHKHIVIMMTFKQDILPIIEALCSEGYHVTVIGKKIYQKDINNINHAYFIPAGNKYIMRHMKVLSKAKIIILDTYYLMMGGYQKKKGQTVIQTWHAAGALKNFGLTDHQVDLKNKAMVRQYKKVYDATDYYLVGGEKMAQCFIQSFDASPSQMLKFGLPRLTQYFRSNLKLEQQRLKKKYHITNKLAVYVPTYREGQVAQRTIDKENFERHLPNYTLLSHLHPSTVDCQTSHSIDVTSLLIMADIIISDYSSLPIEASALNKPTLIYNYDEQQYEKVRGLNEFYYAIPERYKMSNEESIIQAIQDNDEQFQSLFNDWHQYNSKDSLNQLVHFINKLVK | not soluble |
| MAHHHHHHMLRSPQPRFPQHVPGAYPPQQQQQMPPQPQSQPQMPMNAQPPAQAIQQQLEHQDVVHDTQFDYYGQLLATASSDRTIGIHVVQNGQLQRIATLTGHEGPVWMVSWAHPRFGMALASAGYDHKAIIWKEMSQSSKQWAPVHVIDCHHGSVNAVQWAPETPMVATASSDGTVAVTVFEGGVWRDSLKLSNNSNNIAHAMGATSVSFAPMRPSLGGAVLLASGGCDSQVRLWCLQEGSPMANSFELLEVLEGHTDWVRDVAFAPLCAATRHAVLASCGQDKSVIIHRKPWDQLGALIQERQRSSSTNGPQQYLQKESGGIWERSVVLFEEPVWRLSWSPAEEVLVVTTGDSEVYILRENGEFTQPWLKTPLSEYQSGTR | not soluble |
| MPVDTKTVLVVRHGTAGRRSRYKGDDRKRPLDKRGRAQAEALVAQLMAFGATTLYAADRVRCHQTIEPLAQELDQLIHNEPLLTEEAYAADHKAARKRLLEIAGRPGNPVICTQGKVIPGLIEWWCERAKVRPETTGNRKGSTWVLSLSDGELVGADYLSPPDEKLEHHHHHH | not soluble |
| MFIGYKSSKSKKILIMNSKGGAGKSSLTMAMARLFSSKNIKTELIDLDPQNTSYFWGGNNKEIRTQTFLTSSRVPFSLALKLELDTELTIIDTPSNFNKFELDKYLSLADKIILPLQASPIDLHSILGFIKNLIASPVYKKRNIPVCFVITRYKGRVGDLELMHRVLNKLKYPIIGVMSESDAYQSLFIDEDVKVFQYLDKNLWVEIERWINI | not soluble |
| MSEQTVQVKTTGKILQSPCGPIIHGLEDVLIKSTSISDIDGEKGILWYRGYRIEELARLSTYEEVSYLILYGRLPTKRELEDYINRMKKYRELHPATVEVIRNLAKAHPMFALEAAVAAEGAYDEDNQKLIEALSVGRYKAEEKELAYRIAEKLVAKMPTIVAYHYRFSRGLEVVRPRDDLGHAANFLYMMFGREPDPLASRGIDLYLILHADHEVPASTFAAHVVASTLSDLYSSVAAAIAALKGPLHGGANEMAVRNYLEIGTPAKAKEIVEAATKPGGPKLMGVGHRVYKAYDPRAKIFKEFSRDYVAKFGDPQNLFAIASAIEQEVLSHPYFQQRKLYPNVDFWSGIAFYYMGIPYEYFTPIFAMSRVVGWVAHVLEYWENNRIFRPRACYIGPHDLQYIPLEQR | soluble |
| SSYADFVWFLISEEDKRNPTSIEYWFRCMDVDGDGILSMYELEYFYEEQCERMEAMGIEPLPFHDLLCQMLDLVKPASDGRITLRDLKRCRMAHIFYDTFFNLEKYLDHEQRDPFAVQKDVENDGPEPSDWDRFAAEEYEALVTEESAQVQLQEGSFEDYESDEPVSPSELGNKGNKIVTSSLSEKCGKLQSVDEE | soluble |
| MGSKKLKRVGLSQELCDRLSRHQILTCQDFLCLSPLELMKVTGLSYRGVHELLCMVSRACAPKMQTAYGIKAQRSADFSPAFLSTTLSALDEALHGGVACGSLTEITGPPGCGKTQFCIMMSILATLPTNMGGLEGAVVYIDTESAFSAERLVEIAESRFPRYFNTEEKLLLTSSKVHLYRELTCDEVLQRIESLEEEIISKGIKLVILDSVASVVRKEFDAQLQGNLKERNKFLAREASSLKYLAEEFSIPVILTNQITTHLSGALASQADLVSPADDLSLSEGTSGSSCVIAALGNTWSHSVNTRLILQYLDSERRQILIAKSPLAPFTSFVYTIKEEGLVLQAYGNS | soluble |
| MGSDKIHHHHHHMSTEPLASRMRPKNIDEIISQQHLVGPKGIIRRMVDTKKLTSMIFYGPPGIGKTSIAKAISGSTQYKFRQLNAVTNTKKDMQLVVEEAKMSGQVILLLDEIHRLDKAKQDFLLPHLENGKIVLIGATTSNPYHAINPAIRSRAQIFELYPLNDEDVRQALTRAIEDDENGLKTYQPKIDEDAMTYFSTQSQGDVRSALNALELAVLSADNDKDGYRHVTLQDAKDCLQKGAFVSDKDGDMHYDVMSAFQKSIRGSDVNAALHYLARLIEAGDLPTIVRRLLVISYEDIGLASPNAGQRTLAAIESAERLGLPEARIPLSQAVIELCLSPKSNSAMSAIDSALSDIRNGHVGQIPNHLKDGHYQGAKDLGRSIGYKYPHQYVNGYVSQQYLPDKLKNKIYYEPKTTSKSEQQLKEIYNNLLKQRP | not soluble |
